B1: mRNA-splicing (parent)
chain: AGUUGCUGCUGGGAGCUCCAGCACAGUGAAAUGGACAGAAGGGCAGAGCAA

Variants of: B1
Test: exon inclusion enrichment index; higher = more inclusion; WT1 exon 5 minigene, HEK293

Going from G5U G8U C9U A45U G46U to G5U G8U C9U A45U G46A, the “exon inclusion enrichment index” value rises from 0.0271 to 0.0906.

Going from G5C U7C G8A U10A to C6A U7A C9A U10A G34C A35C, the “exon inclusion enrichment index” value rises from 0.03 to 0.0588.

Compared with G5A C6G U7G C9A C36G, G5A C6U U7A G8U C9A G41U G42A is higher in “exon inclusion enrichment index” value: 0.000918 for the first, 0.0133 for the second.

First: C6A U7C C9A U10C A47G G48A
Second: G5C C6U G8C C9U U10C G12C
The “exon inclusion enrichment index” value of the first is higher: 2.43 for the first, 1.51 for the second.

Going from G5U G8U C9U A39U A40U to G5U G8U C9U C22A A23C, the “exon inclusion enrichment index” value rises from 0.0352 to 0.435.

Compared with A29C, A29U is lower in “exon inclusion enrichment index” value: 0.0903 for the first, 0.0295 for the second.

Compared with G5C C6A U7C G8A U10A G21C C22G, A31C U32A is lower in “exon inclusion enrichment index” value: 0.322 for the first, 0.0661 for the second.

Compared with G42A, U7G is lower in “exon inclusion enrichment index” value: 0.734 for the first, 0.183 for the second.

First: U7A
Second: G5C C6U U7C G8C C9U U10C
The “exon inclusion enrichment index” value of the first is lower: 0.394 for the first, 1.73 for the second.

Going from G5U G8U C9U U10C to C6A U7A C9A U10A G43A C44A, the “exon inclusion enrichment index” value rises from 0.561 to 1.84.

First: G5U G8U C9U A40G G41A
Second: G5A U7C G8A U10C A14U G15A
The “exon inclusion enrichment index” value of the first is lower: 0.0719 for the first, 0.514 for the second.

Going from G34A A35C to G5U G8U C9U G42C G43U, the “exon inclusion enrichment index” value rises from 0.0806 to 0.515.

Going from G5A C6U U7A G8U C9A C22G to G5A U7C G8A U10C C22A A23C, the “exon inclusion enrichment index” value rises from 0.0616 to 3.53.

Going from G5C C6G U7C U10C A25U G26U to G5A C6U U7A G8U C9A C24A A25C, the “exon inclusion enrichment index” value falls from 3.03 to 0.405.

First: G5A U7C G8A U10C G33U G34U
Second: A40C G41U
The “exon inclusion enrichment index” value of the first is higher: 0.351 for the first, 0.0496 for the second.

Going from G5C C6G U7C U10C A39G to G5A C6U U7G G8A C9A, the “exon inclusion enrichment index” value falls from 2.45 to 0.546.

First: G5C C6G U7C U10C C22U A23C
Second: G5A C6U U7A G8U C9A A29C
The “exon inclusion enrichment index” value of the first is higher: 2.02 for the first, 0.0477 for the second.

First: G5C C6G U7C U10C U32C
Second: C6A U7C C9A U10C G46C A47G
The “exon inclusion enrichment index” value of the first is higher: 4.75 for the first, 3.46 for the second.

First: G5C C6A U7C G8A U10A A20U G21U
Second: G5C C6U G8C C9U U10G
The “exon inclusion enrichment index” value of the first is lower: 0.037 for the first, 1.12 for the second.

Compared with G5C C6U G8C C9U G11U, G5C C6U G8C C9U G11A is lower in “exon inclusion enrichment index” value: 0.905 for the first, 0.125 for the second.

Compared with G5U G8U C9U A14G G15U, U3G G5C C6G U7C U10C is higher in “exon inclusion enrichment index” value: 0.0063 for the first, 1.32 for the second.

Compared with G5U G8U C9U A29U A30G, G5A C6G U7G C9A A37G G38U is lower in “exon inclusion enrichment index” value: 0.129 for the first, 0.000981 for the second.

Compared with G5A C6U U7A G8U C9A A20G G21A, C6A U7A C9A U10A G21C C22A is higher in “exon inclusion enrichment index” value: 0.112 for the first, 0.729 for the second.

Compared with C6A U7C C9A U10C A39G, C6A U7A C9A U10A G42A G43C is higher in “exon inclusion enrichment index” value: 2.38 for the first, 3.53 for the second.

Compared with G5C C6U G8C C9U U10C A40U, G5C C6U G8C C9U U10C A40G is lower in “exon inclusion enrichment index” value: 1.67 for the first, 1.61 for the second.

First: U3A U4A G5C C6A U7C G8A U10A
Second: G5C C6A U7C G8C C9U U10C
The “exon inclusion enrichment index” value of the first is lower: 0.0877 for the first, 1.98 for the second.

First: G5A U7C G8A U10C A37C G38U
Second: G5A C6G U7G C9A U27C G28A
The “exon inclusion enrichment index” value of the first is higher: 1.6 for the first, 0.00952 for the second.

Compared with C6A U7A C9A U10A G21U, G5C C6G U7C U10C C24A A25C is higher in “exon inclusion enrichment index” value: 0.507 for the first, 4.48 for the second.

First: G5U G8U C9U A20G G21A
Second: G5C C6A U7C G8A U10A G15U C16U
The “exon inclusion enrichment index” value of the first is higher: 0.241 for the first, 0.0659 for the second.

First: G5C C6A U7C G8A U10A A45U G46U
Second: G5C C6G U7C G11U
The “exon inclusion enrichment index” value of the first is lower: 0.0227 for the first, 2.67 for the second.

Compared with C6A U7C C9A U10C G43U C44A, G5C C6G U7C U10C G11A G12C is higher in “exon inclusion enrichment index” value: 0.0402 for the first, 1.51 for the second.

Compared with G5U G8U C9U C16U, G5C C6U G8C C9U U10C G13A A14G is higher in “exon inclusion enrichment index” value: 0.128 for the first, 2.03 for the second.

Going from G5A U7C G8A U10C A29C A30U to G5A U7C G8A U10C A29C A30G, the “exon inclusion enrichment index” value rises from 1.35 to 3.21.

Going from G5C C6U G8A C9A U10C to G5C C6U G8C C9U U10C G28C A29G, the “exon inclusion enrichment index” value rises from 0.564 to 2.82.

First: U4A G5C C6G U7G C9A
Second: G5A U7C G8A U10C A45G G46U
The “exon inclusion enrichment index” value of the first is lower: 0.594 for the first, 2.26 for the second.

Going from G5C C6G U7C U10C G34C A35U to C6A U7C C9A U10C C18G, the “exon inclusion enrichment index” value rises from 1.1 to 3.06.

First: C6A U7C C9A U10C U32G G33U
Second: G5C C6U G8C C9U U10C C16U U17G
The “exon inclusion enrichment index” value of the first is higher: 1.91 for the first, 0.905 for the second.

First: G5C C6U U7G C9U U10C
Second: G5A C6U U7A G8U C9A A23G C24G
The “exon inclusion enrichment index” value of the first is higher: 0.743 for the first, 0.259 for the second.

First: G5U G8U C9U G38C
Second: G5U G8U C9U G38U
The “exon inclusion enrichment index” value of the first is higher: 0.0741 for the first, 0.0205 for the second.

Going from G5C C6U G8C C9U U10C G15C C16G to G5A C6U U7A G8U C9A A39C, the “exon inclusion enrichment index” value falls from 2.09 to 0.0192.

First: G5U G8U C9U G33U
Second: G5A C6U U7A G8U C9A G38C A39U
The “exon inclusion enrichment index” value of the first is higher: 0.0674 for the first, 0.0021 for the second.

In the case of A23G C24G, the “exon inclusion enrichment index” value is reported as 1.64.
